± gives the standard error. Fewer inactive variants are shown than the library holds.
B1: glmS ribozyme (parent)
chain: AUAAAAGCGCCAGAACUACAGAAAUGUAGUUGACGAGGAGGAGGUUUAUCGAAUUUUCGGCGGAUGCCUCCAAA

Key:
Conditions in all cases: with glucosamine-6-phosphate
[1] = variants of: B1; test: self-cleavage kobs at 40 uM GlcN6P; higher = faster cleavage; RNA array
How it was run: (§1)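 Barcoded glmS ribozyme variants on sequenced MiSeq chips were transcribed in situ by E. coli RNA polymerase and tracked through a hybridised Cy3 probe at 37 °C. Glucosamine-6-phosphate (40 μM to 10 mM) in HEPES/KCl/Mg(OAc)2 buffer was flowed in, and tiles were imaged over ~14 h. Signals were normalised to baseline and to non-cleaving reference variants; per-tile medians were fit to one- or two-exponential decays to give kobs. kcat and KM came from weighted Michaelis–Menten fits across concentrations.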

[2] = variants of: B1; test: self-cleavage kobs at 640 uM GlcN6P; higher = faster cleavage; RNA array
How it was run: as §1

[3] = variants of: B1; test: self-cleavage kobs at 10000 uM GlcN6P; higher = faster cleavage; RNA array
How it was run: as §1

[4] = variants of: B1; test: self-cleavage kobs at 160 uM GlcN6P; higher = faster cleavage; RNA array
How it was run: as §1

[5] = variants of: B1; test: self-cleavage kobs at 2500 uM GlcN6P; higher = faster cleavage; RNA array
How it was run: as §1

Variant | self-cleavage kobs at 40 uM GlcN6P [1] [s⁻¹] | self-cleavage kobs at 640 uM GlcN6P [2] [s⁻¹] | self-cleavage kobs at 10000 uM GlcN6P [3] [s⁻¹] | self-cleavage kobs at 160 uM GlcN6P [4] [s⁻¹] | self-cleavage kobs at 2500 uM GlcN6P [5] [s⁻¹]
G41C G60A | < 1e-05 | < 1e-05 | < 1e-05 | – | –
C8U A48G C70U | < 1e-05 | < 1e-05 | < 1e-05 | – | –
G35C A64G C67U | < 1e-05 | – | < 1e-05 | – | –
G29A U55G G60C | < 1e-05 | – | – | – | –
C10G C50A | < 1e-05 | < 1e-05 | – | – | –
U47C A48C | < 1e-05 | – | – | < 1e-05 | –
C19A C50G | 5.77e-05 ± 2.2e-05 | 0.000594 ± 0.00013 | 4.18e-05 ± 1.5e-05 | 0.000364 ± 9.5e-05 | 6.17e-05 ± 2.2e-05
G9U G43U C70G | < 1e-05 | – | < 1e-05 | – | –
G35A A52G | < 1e-05 | – | < 1e-05 | – | < 1e-05
U46A A48C C70G C71U | < 1e-05 | – | < 1e-05 | – | –
C10U G44U | < 1e-05 | < 1e-05 | < 1e-05 | – | < 1e-05
G29C G44U | < 1e-05 | < 1e-05 | – | < 1e-05 | –
U31G G38C | < 1e-05 | < 1e-05 | – | < 1e-05 | < 1e-05
G7C C11A C50U U54C C58A C70A | 0.000371 ± 0.00013 | – | – | – | –
U2C G7C A42G U56A C61A | < 1e-05 | – | < 1e-05 | – | –
G9C C10U G37U | < 1e-05 | < 1e-05 | – | – | –
A39G C61U | < 1e-05 | – | 3.27e-05 ± 1.1e-05 | – | –
G37C U45C G59U C68G | < 1e-05 | < 1e-05 | < 1e-05 | – | –
A33U G41A C50A A53C G60C | < 1e-05 | – | < 1e-05 | – | –
C10A G37U A42U C67G C68G | 7.19e-05 ± 2e-05 | – | – | – | –
A15C G59U | < 1e-05 | < 1e-05 | – | < 1e-05 | –
G29U G41U G51A | < 1e-05 | – | – | – | < 1e-05
G38U U56G | < 1e-05 | – | < 1e-05 | – | < 1e-05

Variant | self-cleavage kobs at 40 uM GlcN6P [1] [s⁻¹] | self-cleavage kobs at 640 uM GlcN6P [2] [s⁻¹] | self-cleavage kobs at 10000 uM GlcN6P [3] [s⁻¹] | self-cleavage kobs at 160 uM GlcN6P [4] [s⁻¹] | self-cleavage kobs at 2500 uM GlcN6P [5] [s⁻¹]
G43C U65A | < 1e-05 | < 1e-05 | – | – | < 1e-05
C10U C34A | < 1e-05 | < 1e-05 | < 1e-05 | < 1e-05 | –
A15G G32C G41A C70A | < 1e-05 | – | – | – | –
A6G G60U C68A | < 1e-05 | < 1e-05 | < 1e-05 | – | < 1e-05
A12U G59C | < 1e-05 | < 1e-05 | < 1e-05 | < 1e-05 | < 1e-05
A15C G38C A52G | < 1e-05 | – | – | – | < 1e-05
C10U A33C | < 1e-05 | < 1e-05 | – | < 1e-05 | < 1e-05
A42C U57A | < 1e-05 | < 1e-05 | < 1e-05 | – | < 1e-05
A14C C16G C50G | 8.94e-05 ± 3.4e-05 | – | – | – | –
G35A A36G | < 1e-05 | < 1e-05 | – | < 1e-05 | < 1e-05
C8A G43C C67U | < 1e-05 | < 1e-05 | – | – | < 1e-05
A6G A64C | < 1e-05 | < 1e-05 | < 1e-05 | < 1e-05 | –
G7C C10A | < 1e-05 | – | < 1e-05 | – | < 1e-05
G51C G62A | < 1e-05 | < 1e-05 | < 1e-05 | – | < 1e-05
G7A A12C U30G | < 1e-05 | – | – | – | –
A52G U57G | 5.61e-05 ± 1.6e-05 | 0.000523 ± 0.00014 | 0.00397 ± 0.00056 | 0.000188 ± 6.1e-05 | 0.00103 ± 0.00019
G7C A39U | < 1e-05 | < 1e-05 | < 1e-05 | – | –
U47G C67A | 0.000123 ± 1.8e-05 | 0.000788 ± 0.00013 | 0.00198 ± 0.00048 | 0.000171 ± 3.2e-05 | 0.000691 ± 0.00014
C34A A39C | < 1e-05 | – | < 1e-05 | < 1e-05 | < 1e-05
G7C A52C | < 1e-05 | < 1e-05 | – | < 1e-05 | < 1e-05
C11G G43C | < 1e-05 | < 1e-05 | < 1e-05 | < 1e-05 | –
U54C G60A | < 1e-05 | – | – | – | –

— the supplement of paper PMC7125110
